Experimental data as given in patent US20010029022.

Tests used:
GST-HPV16 E7 = GST-HPV16 E7 (UniProt P03129)
His-p27 = His-p27 (UniProt P46527)
Chain of His-p27 (P46527 whole entry, looked up): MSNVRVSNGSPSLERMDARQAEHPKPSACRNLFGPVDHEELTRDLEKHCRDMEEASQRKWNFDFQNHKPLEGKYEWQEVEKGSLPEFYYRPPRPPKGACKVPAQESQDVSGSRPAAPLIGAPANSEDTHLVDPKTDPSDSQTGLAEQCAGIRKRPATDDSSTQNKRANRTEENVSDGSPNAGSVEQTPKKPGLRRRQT

Chain of GST-HPV16 E7 (P03129 whole entry): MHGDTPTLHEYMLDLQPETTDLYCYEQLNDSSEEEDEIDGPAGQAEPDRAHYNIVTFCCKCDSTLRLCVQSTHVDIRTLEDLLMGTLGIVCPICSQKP

With CDK5 complexed with p25 the “H1 phosphorylation by CDK5 complexed with p25, increase over controls” value (GST-HPV16 E7) was “a 4.5-fold increase over controls”.
With cyclin A/CDK2 complex the “Km for histone H1 (cyclinA/CDK2 pre-incubated with HPV16-E7, Michaelis-Menten fit)” value (histone H1) was “a Km of 1.1+/-0.2 µM for histone H1”.
cyclin E/CDK2 complex was tested, and the “cyclin E/CDK2 phosphorylation of purified MBP-HPV 18 E1 fusion protein” value (GST-HPV16 E7) was “stimulated 2.3-fold by the addition of HPV 16E7”, the “cyclinE/CDK2 kinase activity with histoneH1 as the substrate, increase over controls” value (GST-HPV16 E7) was “a large increase (26-fold and 13-fold) over controls” and the “cyclinE/CDK2 kinase activity with pRb as the substrate, increase over background” value (GST-HPV16 E7) was 1.9-fold increase over background. The “cyclin E/CDK2 phosphorylation of MBP-HPV 18 E1” value (His-p27) was “The phosphorylation of E1 was completely inhibited by the addition of p27 even in the presence of excess GST-16E7”.
